We go through 2 molecules from paper PMC5571166, “Mapping the key residues of SufB and SufD essential for biosynthesis of iron-sulfur clusters” (Scientific Reports, 2017).

T1: SufB^R226A (Escherichia coli, UniProt P77522 1-495, SufB^R226A)
T1 construct: SufB of the Escherichia coli sufABCDSE operon
T1 sequence: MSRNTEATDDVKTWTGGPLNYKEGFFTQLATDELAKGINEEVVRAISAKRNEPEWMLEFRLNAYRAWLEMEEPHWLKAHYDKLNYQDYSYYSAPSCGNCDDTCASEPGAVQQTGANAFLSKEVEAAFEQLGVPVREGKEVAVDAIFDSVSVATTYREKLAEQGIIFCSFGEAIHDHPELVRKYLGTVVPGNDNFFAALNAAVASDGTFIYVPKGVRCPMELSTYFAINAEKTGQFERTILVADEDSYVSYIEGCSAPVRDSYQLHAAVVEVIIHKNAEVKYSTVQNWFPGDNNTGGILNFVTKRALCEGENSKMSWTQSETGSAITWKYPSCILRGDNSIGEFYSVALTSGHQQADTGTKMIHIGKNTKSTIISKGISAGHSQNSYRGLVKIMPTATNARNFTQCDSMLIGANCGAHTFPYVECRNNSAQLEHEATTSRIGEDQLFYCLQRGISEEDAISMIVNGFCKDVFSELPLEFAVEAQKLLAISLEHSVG

B1: SufD (natural protein, Escherichia coli)
chain: MAGLPNSSNALQQWHHLFEAEGTKRSPQAQQHLQQLLRTGLPTRKHENWKYTPLEGLINSQFVSIAGEISPQQRDALALTLDSVRLVFVDGRYVPALSDATEGSGYEVSINDDRQGLPDAIQAEVFLHLTESLAQSVTHIAVKRGQRPAKPLLLMHITQGVAGEEVNTAHYRHHLDLAEGAEATVIEHFVSLNDARHFTGARFTINVAANAHLQHIKLAFENPLSHHFAHNDLLLAEDATAFSHSFLLGGAVLRHNTSTQLNGENSTLRINSLAMPVKNEVCDTRTWLEHNKGFCNSRQLHKTIVSDKGRAVFNGLINVAQHAIKTDGQMTNNNLLMGKLAEVDTKPQLEIYADDVKCSHGATVGRIDDEQIFYLRSRGINQQDAQQMIIYAFAAELTEALRDEGLKQQVLARIGQRLPGGAR
notes: SufD of the Escherichia coli sufABCDSE operon; One SufD per SufBCD complex (1:2:1); also called SufD subunit of the SufBCD complex
B2: SufC (natural protein, Escherichia coli)
chain: MLSIKDLHVSVEDKAILRGLSLDVHPGEVHAIMGPNGSGKSTLSATLAGREDYEVTGGTVEFKGKDLLALSPEDRAGEGIFMAFQYPVEIPGVSNQFFLQTALNAVRSYRGQETLDRFDFQDLMEEKIALLKMPEDLLTRSVNVGFSGGEKKRNDILQMAVLEPELCILDESDSGLDIDALKVVADGVNSLRDGKRSFIIVTHYQRILDYIKPDYVHVLYQGRIVKSGDFTLVKQLEEQGYGWLTEQQ
notes: SufC of the Escherichia coli sufABCDSE operon; also called SufC subunit of the SufBCD complex

Assay [1] addresses T1, SufB^R226A. Put plainly: SEC; SufBCD complexes co-expressed in E. coli and co-purified on Phenyl FF, Q XL and Sephacryl S-200; eluted from gel filtration at about 160 kDa; subunit composition checked by SDS-PAGE of the purified sample. The following applies: both partners purified. (Size exclusion chromatography separates by hydrodynamic size, large species first.)
In assay [2] the target is B1. The assay is described as above. To be noted: both partners purified.

For B1, the binding result in assay [1] is “binds”. As to B2, the binding result in assay [2] and in assay [1] was “binds” each time.
